Experimental data as given in patent US20260242419A1, “A CYCLIC PEPTIDE FOR TRAPPING INTERLEUKIN-1 BETA” (Merck Sharp & Dohme LLC, priority 2023, published 2026).
Starred links: 1 amine or outer side, 2 acyl side, 3 side chain; linkers in the order of their positions; H or OH if unused. Non-standard residues stand in square brackets, D forms with d. TyrEtNAc = (2S)-3-[4-(2-acetamidoethoxy)phenyl]-2-amino-propanoic acid, CC(=O)NCCOc1ccc(C[C@H](N[*:1])C(=O)[*:2])cc1; Phe3Cl4COOH = (S)-4-(2-amino-2-carboxyethyl)-2-chlorobenzoic acid, O=C([C@H](Cc1ccc(C(=O)[*:3])c(Cl)c1)N[*:1])[*:2]; Phe(4-(5-CO2H-2-pyrimidyl)) = N[C@@H](Cc1ccc(-c2ncc(C(=O)O)cn2)cc1)C(=O)O; Phe(4-(4-Ac-piperazinyl)) = CC(=O)N1CCN(c2ccc(C[C@H](N)C(=O)O)cc2)CC1; Trp(4-Cl)(βS-Me) = C[C@@H](c1c[nH]c2cccc(Cl)c12)[C@H](N)C(=O)O; dPro(4R-(4-pyridylmethyl)) = O=C(O)[C@H]1C[C@@H](Cc2ccncc2)CN1; Trp(βS-Me,4-F) = C[C@@H](c1c[nH]c2cccc(F)c12)[C@H](N)C(=O)O; Bip(4'-COOH) = N[C@@H](Cc1ccc(-c2ccc(C(=O)O)cc2)cc1)C(=O)O; Ala(1-bicyclo(1.1.1)pentyl) = N[C@@H](CC12CC(C1)C2)C(=O)O; dPro(3S-(4-F-Bn)) = O=C(O)[C@@H]1NCC[C@@H]1Cc1ccc(F)cc1; Phe(2-Cl,4-COOH) = N[C@@H](Cc1ccc(C(=O)O)cc1Cl)C(=O)O; 1Nal(3S-Me) = C[C@@H](c1cccc2ccccc12)[C@H](N)C(=O)O; Ala(pyrimidin-5-yl) = N[C@@H](Cc1cncnc1)C(=O)O; Phe(4-COOH) = N[C@@H](Cc1ccc(C(=O)O)cc1)C(=O)O; Pro(cis-4-F) = O=C(O)[C@@H]1C[C@H](F)CN1; Ala(4-THP) = N[C@@H](CC1CCOCC1)C(=O)O; d(αMeD) = C[C@@](N)(CC(=O)O)C(=O)O; 4Pal = N[C@@H](Cc1ccncc1)C(=O)O; aThr = C[C@H](O)[C@H](N)C(=O)O; d(αMeS) = C[C@@](N)(CO)C(=O)O; Dab = NCC[C@H](N)C(=O)O; Aib = CC(C)(N)C(=O)O

B1: SEQ ID NO 360 (peptide)
peptide: cyclo([Phe(4-(5-CO2H-2-pyrimidyl))][4Pal][Phe(2-Cl,4-COOH)]G[Pro(cis-4-F)][1Nal(3S-Me)][Aib]SW[d(αMeD)][Ala(4-THP)]Q[Dab]G[dPro(4R-(4-pyridylmethyl))])
modifications: ring closure inferred
B2: SEQ ID NO 361 (peptide)
peptide: cyclo([Phe(4-(5-CO2H-2-pyrimidyl))][4Pal][Phe3Cl4COOH]G[Pro(cis-4-F)][Trp(βS-Me,4-F)][Aib]SW[d(αMeD)][Ala(4-THP)]Q[Dab]G[dPro(4R-(4-pyridylmethyl))])
modifications: ring closure inferred
B3: SEQ ID NO 358 (peptide)
peptide: cyclo([Bip(4'-COOH)][4Pal][Phe(4-COOH)]G[Pro(cis-4-F)][Trp(4-Cl)(βS-Me)][Aib]SW[d(αMeD)][aThr]Q[Dab]G[dPro(4R-(4-pyridylmethyl))])
modifications: ring closure inferred
B4: SEQ ID NO 359 (peptide)
peptide: cyclo([Bip(4'-COOH)][4Pal][Phe(4-COOH)]G[Pro(cis-4-F)][Trp(βS-Me,4-F)][Aib]SW[d(αMeD)][aThr]Q[Dab]G[dPro(4R-(4-pyridylmethyl))])
modifications: ring closure inferred
B5: SEQ ID NO 362 (peptide)
peptide: cyclo([TyrEtNAc][4Pal][Phe(4-COOH)]G[Pro(cis-4-F)][Trp(4-Cl)(βS-Me)][Aib]SW[d(αMeD)][Ala(4-THP)]Q[Dab]G[dPro(4R-(4-pyridylmethyl))])
SMILES: CC(=O)NCCOc1ccc(C[C@@H]2NC(=O)[C@H]3C[C@@H](Cc4ccncc4)CN3C(=O)CNC(=O)[C@H](CCN)NC(=O)[C@H](CCC(N)=O)NC(=O)[C@H](CC3CCOCC3)NC(=O)[C@@](C)(CC(=O)O)NC(=O)[C@H](Cc3c[nH]c4ccccc34)NC(=O)[C@H](CO)NC(=O)C(C)(C)NC(=O)[C@H]([C@@H](C)c3c[nH]c4cccc(Cl)c34)NC(=O)[C@@H]3C[C@H](F)CN3C(=O)CNC(=O)[C@H](Cc3ccc(C(=O)O)cc3)NC(=O)[C@H](Cc3ccncc3)NC2=O)cc1
B6: SEQ ID NO 367 (peptide)
peptide: cyclo([TyrEtNAc][4Pal][Phe2Cl4COOH]G[Pro(cis-4-F)][Trp(βS-Me,4-F)][Aib]SW[Aib][Ala(pyrimidin-5-yl)]Q[Dab]G[dPro(4R-(4-pyridylmethyl))])
B7: SEQ ID NO 364 (peptide)
peptide: cyclo([Bip(4'-COOH)][4Pal][Phe(4-COOH)]G[Pro(cis-4-F)][Trp(βS-Me,4-F)][Aib]SW[d(αMeS)][Ala(4-THP)]Q[Dab]G[dPro(4R-(4-pyridylmethyl))])
SMILES: C[C@@H](c1c[nH]c2cccc(F)c12)[C@@H]1NC(=O)[C@@H]2C[C@H](F)CN2C(=O)CNC(=O)[C@H](Cc2ccc(C(=O)O)cc2)NC(=O)[C@H](Cc2ccncc2)NC(=O)[C@H](Cc2ccc(-c3ccc(C(=O)O)cc3)cc2)NC(=O)[C@H]2C[C@@H](Cc3ccncc3)CN2C(=O)CNC(=O)[C@H](CCN)NC(=O)[C@H](CCC(N)=O)NC(=O)[C@H](CC2CCOCC2)NC(=O)[C@@](C)(CO)NC(=O)[C@H](Cc2c[nH]c3ccccc23)NC(=O)[C@H](CO)NC(=O)C(C)(C)NC1=O
B8: SEQ ID NO 365 (peptide)
peptide: cyclo([Phe(4-(4-Ac-piperazinyl))][4Pal][Phe(2-Cl,4-COOH)]G[Pro(cis-4-F)][Trp(βS-Me,4-F)][Aib]SW[Aib][Ala(pyrimidin-5-yl)]Q[Dab]G[dPro(4R-(4-pyridylmethyl))])
SMILES: CC(=O)N1CCN(c2ccc(C[C@@H]3NC(=O)[C@H]4C[C@@H](Cc5ccncc5)CN4C(=O)CNC(=O)[C@H](CCN)NC(=O)[C@H](CCC(N)=O)NC(=O)[C@H](Cc4cncnc4)NC(=O)C(C)(C)NC(=O)[C@H](Cc4c[nH]c5ccccc45)NC(=O)[C@H](CO)NC(=O)C(C)(C)NC(=O)[C@H]([C@@H](C)c4c[nH]c5cccc(F)c45)NC(=O)[C@@H]4C[C@H](F)CN4C(=O)CNC(=O)[C@H](Cc4ccc(C(=O)O)cc4Cl)NC(=O)[C@H](Cc4ccncc4)NC3=O)cc2)CC1
B9: SEQ ID NO 370 (peptide)
peptide: cyclo([TyrEtNAc][Ala(1-bicyclo(1.1.1)pentyl)][Phe(4-COOH)]G[Pro(cis-4-F)][Trp(βS-Me,4-F)][Aib]SW[d(αMeD)][Ala(4-THP)]Q[Dab]G[dPro(3S-(4-F-Bn))])
SMILES: CC(=O)NCCOc1ccc(C[C@@H]2NC(=O)[C@H]3[C@@H](Cc4ccc(F)cc4)CCN3C(=O)CNC(=O)[C@H](CCN)NC(=O)[C@H](CCC(N)=O)NC(=O)[C@H](CC3CCOCC3)NC(=O)[C@@](C)(CC(=O)O)NC(=O)[C@H](Cc3c[nH]c4ccccc34)NC(=O)[C@H](CO)NC(=O)C(C)(C)NC(=O)[C@H]([C@@H](C)c3c[nH]c4cccc(F)c34)NC(=O)[C@@H]3C[C@H](F)CN3C(=O)CNC(=O)[C@H](Cc3ccc(C(=O)O)cc3)NC(=O)[C@H](CC34CC(C3)C4)NC2=O)cc1
B10: SEQ ID NO 366 (peptide)
peptide: cyclo([Phe(4-(4-Ac-piperazinyl))][4Pal][Phe(4-COOH)]G[Pro(cis-4-F)][Trp(βS-Me,4-F)][Aib]SW[Aib][Ala(pyrimidin-5-yl)]Q[Dab]G[dPro(4R-(4-pyridylmethyl))])
SMILES: CC(=O)N1CCN(c2ccc(C[C@@H]3NC(=O)[C@H]4C[C@@H](Cc5ccncc5)CN4C(=O)CNC(=O)[C@H](CCN)NC(=O)[C@H](CCC(N)=O)NC(=O)[C@H](Cc4cncnc4)NC(=O)C(C)(C)NC(=O)[C@H](Cc4c[nH]c5ccccc45)NC(=O)[C@H](CO)NC(=O)C(C)(C)NC(=O)[C@H]([C@@H](C)c4c[nH]c5cccc(F)c45)NC(=O)[C@@H]4C[C@H](F)CN4C(=O)CNC(=O)[C@H](Cc4ccc(C(=O)O)cc4)NC(=O)[C@H](Cc4ccncc4)NC3=O)cc2)CC1
B11: SEQ ID NO 368 (peptide)
peptide: cyclo([TyrEtNAc][4Pal][Phe(4-COOH)]G[Pro(cis-4-F)][Trp(βS-Me,4-F)][Aib]SW[Aib][Ala(pyrimidin-5-yl)]Q[Dab]G[dPro(4R-(4-pyridylmethyl))])
SMILES: CC(=O)NCCOc1ccc(C[C@@H]2NC(=O)[C@H]3C[C@@H](Cc4ccncc4)CN3C(=O)CNC(=O)[C@H](CCN)NC(=O)[C@H](CCC(N)=O)NC(=O)[C@H](Cc3cncnc3)NC(=O)C(C)(C)NC(=O)[C@H](Cc3c[nH]c4ccccc34)NC(=O)[C@H](CO)NC(=O)C(C)(C)NC(=O)[C@H]([C@@H](C)c3c[nH]c4cccc(F)c34)NC(=O)[C@@H]3C[C@H](F)CN3C(=O)CNC(=O)[C@H](Cc3ccc(C(=O)O)cc3)NC(=O)[C@H](Cc3ccncc3)NC2=O)cc1
B12: SEQ ID NO 371 (peptide)
peptide: cyclo([TyrEtNAc][Ala(1-bicyclo(1.1.1)pentyl)][Phe(4-COOH)]G[Pro(cis-4-F)][Trp(βS-Me,4-F)][Aib]SW[d(αMeS)][Ala(4-THP)]Q[Dab]G[dPro(3S-(4-F-Bn))])
SMILES: CC(=O)NCCOc1ccc(C[C@@H]2NC(=O)[C@H]3[C@@H](Cc4ccc(F)cc4)CCN3C(=O)CNC(=O)[C@H](CCN)NC(=O)[C@H](CCC(N)=O)NC(=O)[C@H](CC3CCOCC3)NC(=O)[C@@](C)(CO)NC(=O)[C@H](Cc3c[nH]c4ccccc34)NC(=O)[C@H](CO)NC(=O)C(C)(C)NC(=O)[C@H]([C@@H](C)c3c[nH]c4cccc(F)c34)NC(=O)[C@@H]3C[C@H](F)CN3C(=O)CNC(=O)[C@H](Cc3ccc(C(=O)O)cc3)NC(=O)[C@H](CC34CC(C3)C4)NC2=O)cc1
B13: SEQ ID NO 363 (peptide)
peptide: cyclo([TyrEtNAc][4Pal][Phe(2-Cl,4-COOH)]G[Pro(cis-4-F)][1Nal(3S-Me)][Aib]SW[d(αMeD)][Ala(4-THP)]Q[Dab]G[dPro(4R-(4-pyridylmethyl))])
SMILES: CC(=O)NCCOc1ccc(C[C@@H]2NC(=O)[C@H]3C[C@@H](Cc4ccncc4)CN3C(=O)CNC(=O)[C@H](CCN)NC(=O)[C@H](CCC(N)=O)NC(=O)[C@H](CC3CCOCC3)NC(=O)[C@@](C)(CC(=O)O)NC(=O)[C@H](Cc3c[nH]c4ccccc34)NC(=O)[C@H](CO)NC(=O)C(C)(C)NC(=O)[C@H]([C@@H](C)c3cccc4ccccc34)NC(=O)[C@@H]3C[C@H](F)CN3C(=O)CNC(=O)[C@H](Cc3ccc(C(=O)O)cc3Cl)NC(=O)[C@H](Cc3ccncc3)NC2=O)cc1
B14: SEQ ID NO 369 (peptide)
peptide: cyclo([TyrEtNAc][4Pal][Phe(4-COOH)]G[Pro(cis-4-F)][Trp(βS-Me,4-F)][Aib]SW[d(αMeD)][Ala(pyrimidin-5-yl)]Q[Dab]G[dPro(3S-(4-F-Bn))])
SMILES: CC(=O)NCCOc1ccc(C[C@@H]2NC(=O)[C@H]3[C@@H](Cc4ccc(F)cc4)CCN3C(=O)CNC(=O)[C@H](CCN)NC(=O)[C@H](CCC(N)=O)NC(=O)[C@H](Cc3cncnc3)NC(=O)[C@@](C)(CC(=O)O)NC(=O)[C@H](Cc3c[nH]c4ccccc34)NC(=O)[C@H](CO)NC(=O)C(C)(C)NC(=O)[C@H]([C@@H](C)c3c[nH]c4cccc(F)c34)NC(=O)[C@@H]3C[C@H](F)CN3C(=O)CNC(=O)[C@H](Cc3ccc(C(=O)O)cc3)NC(=O)[C@H](Cc3ccncc3)NC2=O)cc1

Target: Recombinant human IL-1β (BioLegend 579404) (human, UniProt P01584 117-269)
Assay: cell-based or functional assay

Binder	MRC5 IC50
B1	0.019 nM
B2	0.022 nM
B3	0.013 nM
B4	0.011 nM

Target: Recombinant human IL-1β (BioLegend 579404) (human, UniProt P01584 117-269)
Assay: cell-based or functional assay
Remark: another data set of the same source

Binder	MRC5 IC50
B5	0.023 nM
B6	0.017 nM
B7	0.015 nM
B8	0.023 nM
B9	0.015 nM
B10	0.021 nM
B11	0.022 nM
B12	0.014 nM
B13	0.021 nM
B14	0.021 nM
